± gives the standard deviation of the averaged measurements.
Test system: ATP
Experiment: switch fluorescence ratio, 500 uM ATP over buffer (Cy3 cluster intensity, sum of 5 cycles each) (fold (ratio)); higher = stronger signal-on switching upon ATP binding; sequences stand for … in TCGTCGGCAGCGTCAGATGTGTATAAGAGACAGTTTTTTTTTTTTTTTTTTTTTTTTT…TC
Details: aptamer strand: ATP DNA aptamer (quencher-CACCTGGGGGAGTATTGCGGAGGAAGG + anchor), 100 nM annealed; ATP concentration: 500 uM
Method in brief: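 Exposure to 500 uM ATP lasted 15 min at 22 °C before imaging, and a selection-buffer image was taken beforehand, for Cy3-labelled switching-strand clusters on a modified Illumina MiSeq flow-cell annealed to 100 nM quencher-labelled ATP aptamer. Five buffer/ATP cycles were run with NaOH stripping and re-annealing between them. The fluorescence ratio per cluster is summed target-cycle over summed buffer-cycle Cy3 intensity, averaged per switch-domain sequence. Clusters outside 100-1000 RFU were excluded.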

| Sequence | switch fluorescence ratio |
| --- | --- |
| AAATAATTGT | 1.019 ± 0.01 |
| AAATAATTTT | 1.01 ± 0.027 |
| AAATACTTGG | 1.04 ± 0.055 |
| AAATACTTTT | 1.03 ± 0.021 |
| AAATAGAAGA | 1.03 ± 0.038 |
| AAATAGGGGA | 0.989 ± 0.039 |
| AAATAGGTTA | 1.02 ± 0.046 |
| AAATAGGTTT | 1 ± 0.044 |
| AAATATCGGT | 0.971 ± 0.018 |
| AAATATGGTG | 1 ± 0.021 |
| AAATATTGTT | 0.976 ± 0.027 |
| AAATATTTCG | 1.02 ± 0.03 |
| AAATCATATG | 1.08 ± 0.087 |
| AAATCATTGT | 1 ± 0.014 |
| AAATCCGATT | 1.01 ± 0.011 |
| AAATCCTTAT | 0.996 ± 0.063 |
| AAATCGAGCG | 0.969 ± 0.025 |
| AAATCGCATG | 1.03 ± 0.019 |
| AAATCGGAAA | 0.98 ± 0.028 |
| AAATCGTAGG | 0.963 ± 0.054 |
| AAATGATCTA | 1.01 ± 0.029 |
| AAATGCACAC | 1.107 ± 0.0021 |
| AAATGCAGGG | 1.01 ± 0.055 |
| AAATGCCACG | 1.06 ± 0.017 |
| AAATGCGGGG | 0.978 ± 0.036 |

| Sequence | switch fluorescence ratio |
| --- | --- |
| AAATGGATTT | 1.01 ± 0.085 |
| AAATGGCCGG | 0.996 ± 0.024 |
| AAATGGTAGG | 0.996 ± 0.0086 |
| AAATGTCAAA | 0.986 ± 0.042 |
| AAATGTGGCG | 1.03 ± 0.011 |
| AAATGTTATC | 0.986 ± 0.042 |
| AAATTAAATT | 0.996 ± 0.039 |
| AAATTAATTT | 1.02 ± 0.043 |
| AAATTAGGGG | 0.9908 ± 0.0085 |
| AAATTAGTG | 1.05 ± 0.059 |
| AAATTCATTG | 0.969 ± 0.04 |
| AAATTCGATT | 1.032 ± 0.0037 |
| AAATTCGGGT | 0.981 ± 0.016 |
| AAATTCGGTG | 0.999 ± 0.016 |
| AAATTGAGGC | 0.96 ± 0.027 |
| AAATTGCCTG | 1.01 ± 0.047 |
| AAATTGCTGC | 1.01 ± 0.036 |
| AAATTGGACT | 1.02 ± 0.033 |
| AAATTGGGCA | 0.997 ± 0.029 |
| AAATTGGGGA | 0.986 ± 0.014 |
| AAATTGGTAA | 1 ± 0.017 |
| AAATTTAGCA | 0.99 ± 0.052 |
| AAATTTGGCT | 0.992 ± 0.071 |
| AAATTTTTGG | 1.01 ± 0.045 |
| AACAAACCGT | 1.1 ± 0.017 |

| Sequence | switch fluorescence ratio |
| --- | --- |
| AACAAGGGCT | 1.04 ± 0.014 |
| AACAATGAAG | 1.03 ± 0.022 |
| AACAATGGGG | 1.03 ± 0.077 |
| AACACATGCG | 0.9936 ± 0.0015 |
| AACACCAGGT | 1.38 ± 0.45 |
| AACACCTAGG | 1.02 ± 0.028 |
| AACACGAATT | 0.998 ± 0.025 |
| AACAGAAGAG | 1.007 ± 0.01 |
| AACAGATTTT | 0.998 ± 0.011 |
| AACAGCAGGC | 1.16 ± 0.013 |
| AACAGCTGTT | 0.972 ± 0.035 |
| AACAGGCTGG | 1.01 ± 0.013 |
| AACAGGGAGG | 0.993 ± 0.032 |
| AACAGTACAC | 1.22 ± 0.023 |
| AACATGCTTA | 0.972 ± 0.02 |
| AACATGTCTC | 1.01 ± 0.043 |
| AACATTAAAT | 1.1 ± 0.1 |
| AACCAGCGGA | 0.994 ± 0.019 |
| AACCATTGCT | 1.048 ± 0.0053 |
| AACCCCGGGG | 1.02 ± 0.067 |
| AACCCGGGAA | 0.995 ± 0.042 |
| AACCGCGGTG | 0.984 ± 0.011 |
| AACCGCTTGG | 0.995 ± 0.056 |
| AACCGGATTC | 1 ± 0.02 |
| AACCGGGGGT | 0.991 ± 0.038 |

| Sequence | switch fluorescence ratio |
| --- | --- |
| AACCTACGGC | 1.38 ± 0.083 |
| AACCTATTCT | 1.15 ± 0.17 |
| AACCTTTATA | 1.01 ± 0.012 |
| AACCTTTCTT | 1.46 ± 0.041 |
| AACGAAAGGG | 1.03 ± 0.074 |
| AACGACACAT | 1.46 ± 0.014 |
| AACGACGACG | 1.16 ± 0.05 |
| AACGATGAAG | 1.01 ± 0.043 |
| AACGATTTAT | 0.9936 ± 0.0068 |
| AACGCCGGCC | 1.01 ± 0.057 |
| AACGGCCCTG | 1.03 ± 0.026 |
| AACGGCTA | 1.047 ± 0.0045 |
| AACGGCTTCA | 1.057 ± 0.0029 |
| AACGGGCCAC | 1.079 ± 0.0077 |
| AACGGGGACT | 1.05 ± 0.063 |
| AACGGGGGAG | 0.979 ± 0.021 |
| AACGGGGTTA | 1.04 ± 0.06 |
| AACGGGTGAG | 0.9856 ± 0.0092 |
| AACGGTCAAA | 1.02 ± 0.028 |
| AACGGTTAAA | 1.011 ± 0.0022 |
| AACGTAGTTT | 1.02 ± 0.029 |
| AACGTCTTTT | 0.9826 ± 0.0038 |
| AACGTGGCGT | 1.023 ± 0.0066 |
| AACGTGTTGG | 1.013 ± 0.0015 |
| AACGTTAGGT | 0.9704 ± 0.0022 |

| Sequence | switch fluorescence ratio |
| --- | --- |
| AACGTTGGAC | 1.1 ± 0.029 |
| AACGTTGGGC | 1.03 ± 0.059 |
| AACGTTGGTT | 1.01 ± 0.012 |
| AACGTTGTTG | 0.976 ± 0.044 |
| AACTAAGGGA | 0.9949 ± 0.0068 |
| AACTAAGTGG | 0.967 ± 0.017 |
| AACTACTGTG | 1.03 ± 0.056 |
| AACTAGACCT | 1.42 ± 0.019 |
| AACTAGGTCG | 0.974 ± 0.058 |
| AACTATAAGA | 1.06 ± 0.1 |
| AACTATGAAC | 1.03 ± 0.029 |
| AACTATTAGA | 0.952 ± 0.018 |
| AACTCAGGCG | 1.039 ± 0.0066 |
| AACTCCACGA | 1.26 ± 0.32 |
| AACTCCAGGT | 1.2 ± 0.011 |
| AACTCGGTCC | 1 ± 0.061 |
| AACTCGGTCG | 1.04 ± 0.051 |
| AACTCTCGGG | 1 ± 0.014 |
| AACTCTGGTT | 0.968 ± 0.048 |
| AACTCTGTCT | 1 ± 0.032 |
| AACTGAGGGA | 1.022 ± 0.0069 |
| AACTGCTATC | 1.22 ± 0.036 |
| AACTGGAACT | 1.03 ± 0.032 |
| AACTGTTGG | 0.9895 ± 0.006 |
| AACTTAAGGG | 1.003 ± 0.0092 |

| Sequence | switch fluorescence ratio |
| --- | --- |
| AACTTAATG | 0.9926 ± 0.0025 |
| AACTTACACG | 1.2 ± 0.018 |
| AACTTATCGG | 1.01 ± 0.036 |
| AACTTGGGGG | 1.021 ± 0.0048 |
| AACTTGTGTG | 0.989 ± 0.042 |
| AACTTTGGGG | 1.01 ± 0.068 |
| AAGAAAGGCT | 0.982 ± 0.033 |
| AAGAAAGTCT | 0.995 ± 0.068 |
| AAGAAATGTA | 1.013 ± 0.0063 |
| AAGAAATTGG | 0.9446 ± 0.0027 |
| AAGAACGGTA | 1.06 ± 0.043 |
| AAGAAGAGGG | 1.02 ± 0.021 |
| AAGAAGGGAA | 1.004 ± 0.0068 |
| AAGAAGTTGG | 0.985 ± 0.038 |
| AAGAATATAT | 0.991 ± 0.018 |
| AAGAATCTGC | 0.985 ± 0.051 |
| AAGAATGTG | 0.9474 ± 0.0022 |
| AAGAATTTTT | 1 ± 0.023 |
| AAGACAGGCC | 1.03 ± 0.014 |
| AAGACGAATT | 1.01 ± 0.058 |
| AAGACGTGGA | 0.9993 ± 0.0064 |
| AAGACGTGGT | 0.992 ± 0.008 |
| AAGACTGAGC | 1.033 ± 0.0071 |
| AAGACTTAT | 1.01 ± 0.053 |
| AAGACTTTGT | 1 ± 0.024 |

| Sequence | switch fluorescence ratio |
| --- | --- |
| AAGAGAAGTT | 0.9938 ± 0.0088 |
| AAGAGAATGG | 0.984 ± 0.052 |
| AAGAGACAGA | 1.25 ± 0.066 |
| AAGAGAGTTT | 0.9837 ± 0.00066 |
| AAGAGCCAAA | 0.9735 ± 0.0097 |
| AAGAGCGGAC | 1.11 ± 0.047 |
| AAGAGCGGGG | 0.989 ± 0.043 |
| AAGAGGACGC | 1 ± 0.066 |
| AAGAGGCGGT | 1.01 ± 0.022 |
| AAGAGGGCGT | 1.012 ± 0.0064 |
| AAGAGGGGG | 0.977 ± 0.026 |
| AAGAGGTCG | 1.02 ± 0.046 |
| AAGAGGTGCA | 0.989 ± 0.034 |
| AAGAGGTTAC | 0.973 ± 0.049 |
| AAGAGTCTT | 0.963 ± 0.042 |
| AAGAGTGGGG | 1.02 ± 0.049 |
| AAGAGTTCTG | 1 ± 0.011 |
| AAGAGTTGAC | 0.947 ± 0.059 |
| AAGATAACCT | 1.87 ± 0.23 |
| AAGATACGCT | 1.06 ± 0.065 |
| AAGATATCTG | 1.01 ± 0.032 |
| AAGATCATGG | 0.98235 ± 0.00028 |
| AAGATCCGCT | 1.13 ± 0.027 |
| AAGATGACTA | 0.986 ± 0.042 |
| AAGATGGGGC | 0.998 ± 0.038 |

| Sequence | switch fluorescence ratio |
| --- | --- |
| AAGATGGGGG | 0.998 ± 0.033 |
| AAGATGGTTA | 0.97 ± 0.01 |
| AAGATGTTTT | 1.01 ± 0.04 |
| AAGATTAGTC | 0.974 ± 0.041 |
| AAGATTGTCG | 1.14 ± 0.039 |
| AAGATTGTGT | 0.9849 ± 0.0017 |
| AAGATTTTGA | 0.936 ± 0.063 |
| AAGATTTTTG | 1.01 ± 0.041 |
| AAGCAAAGGT | 1.02 ± 0.027 |
| AAGCAAGGGA | 1.065 ± 0.01 |
| AAGCAGATAG | 1.46 ± 0.048 |
| AAGCAGTCGA | 1.09 ± 0.015 |
| AAGCATCACG | 1.07 ± 0.011 |
| AAGCCCTACA | 1.01 ± 0.03 |
| AAGCCGATTC | 1.03 ± 0.0068 |
| AAGCCGGATG | 1.005 ± 0.0095 |
| AAGCCGGGGG | 0.987 ± 0.019 |
| AAGCCTTTAG | 0.974 ± 0.047 |
| AAGCGAACAT | 1.08 ± 0.076 |
| AAGCGAGG | 0.9872 ± 0.0032 |
| AAGCGCGAGG | 1.03 ± 0.022 |
| AAGCGGCGGG | 1.01 ± 0.019 |
| AAGCGGGAGC | 1.026 ± 0.0049 |
| AAGCGGTATC | 1.03 ± 0.021 |
| AAGCGGTCCG | 1.02 ± 0.025 |
